Test results as given in patent publication US5811267.

Columns and labels:
[1] = target: P-glycoprotein (product of the human MDR1 gene) (human) (UniProt P08183); test: solid phase whole-cell ELISA, hybridoma supernatant on fixed BATV.2 cells (human MDR1 transfected 3T3) against parent BA3T3 cells
[2] = target: P-glycoprotein (product of the human MDR1 gene) (human) (UniProt P08183); test: indirect immunofluorescence on drug-resistant cell lines against drug-sensitive parental KB-3-1 cells

Substance: monoclonal antibody produced by the hybridoma cell line 15D3 (ATCC No. HB11342)
- fold reaction on BATV.2 cells over parent BA3T3 cells [1]: > 2 fold
- fold reaction on resistant cell lines over KB-3-1 cells [2]: > 2 fold
